{"source": "patent US20230310629A1", "about": "“BISPECIFIC ANTIBODY-DRUG CONJUGATES TARGETING EGFR AND MUC1 AND USES THEREOF” (Merck Patent GmbH, priority 2020, published 2023)", "molecules": {"B1": {"name": "1993-H02: anti-MUC1 antibody variant from affinity maturation of HT186-D11, with HT186-D11 light chain; developed as scFv (antibody, V domains shown)", "VH": "QMQLVQSEAELKKPGASVKVSCKASGYSFTSHFMHWVRQAPGQGLEWMGWIDPVTGGTKYAQNFQGWVTMTRDTSIRTAYLELSRLRSDDTAMYYCAREARADRGQFDKWGQGTLVTVAS", "VL": "QSVLTQPPSVSVAPGKTARITCGGNNIGSKSVHWYQQKPGQAPALVIYYGSNRPSGIPERFSGSNSGNTATLTISRVEAGDEADYYCQVWDSSSDWVFGGGTKLTVL"}}, "key": {"human MUC1-VNTR peptide": {"biological_target": "human MUC1-VNTR peptide (Homo sapiens, UniProt P15941)", "experiment": "Biacore binding to human MUC1-VNTR peptide (Example 1)", "description": "An anti-MUC1 scFv (H02) was developed by affinity maturation of anti-MUC1 antibody HT186-D11 (see Thie H. et al. PLoS One […], 6, 1, e15921) using ribosome display selection. For the scFv library, CDRs H1, H2, H3 and L3 (SEQ ID NOs: 4, 5, 6, and 9) were targeted. scFv ribosome display selections were then performed against a biotinylated synthetic VNTR peptide of MUC ([…]-biotin) (SEQ ID NO:10)."}, "WISH cells": {"tested_on": "WISH cells", "experiment": "WISH cell binding (Example 1)", "design": "species or system human; unit not given here"}, "[1]": {"conditions": "human MUC1-VNTR, second data set"}}}
{"molecule": "B1", "values": [{"measurement": "Turbidity A600", "value": 0.15}, {"measurement": "kd", "setting": "human MUC1-VNTR peptide; human MUC1-VNTR peptide, first data set", "value": "2.14E−04 ½"}, {"measurement": "ka1", "setting": "human MUC1-VNTR peptide; [1]", "value": 126000, "unit": "M⁻¹ s⁻¹"}, {"measurement": "kd1", "setting": "human MUC1-VNTR peptide; [1]", "value": 0.0017, "unit": "s⁻¹"}, {"measurement": "Bmax", "setting": "WISH cells", "value": 128920}]}
